# The nanobody polyreactivity screen of Harvey et al. (2022)
# Assay: yeast display, Sf9 membrane polyspecificity reagent, FACS + sequencing; frameworks hold sequencing errors
# Summary of the method: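 Galactose-induced (36–48 hours) yeast carrying a synthetic nanobody display library were exposed to 10% biotinylated, detergent-solubilized Sf9 membrane reagent at 4 °C for 1 hour. FACS followed streptavidin microbead enrichment, using low and high (top ~1%) gates for expression (anti-HA) and reagent binding (streptavidin). Colony PCR, MiSeq 2 × 250 sequencing and CDR-length filtering followed. Labels for polyreactivity reflect the gate of origin.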
row,Sequence,polyreactivity (PSR sort gate)
1,QVQLVESGAGLVQAGGSLRLTCAASGFIFRRNAMGWYRQAPGKERELVAAITTGGRTNYADSVKGRFTISRDNAKNTVYLQMNSLKPEDTPVYYCYAPVLDVIDVFYYARILFGYWGQGTQVTVSS,low polyreactivity
2,QVQLVESGAGLVQAGGSLRLTCAASGSTFYRYAMGWYREAPGKERELVAAINTGGSTNYADSVKGRFTISRDNAKNTVYLQMYSMKPEDTAVYYCAARFQYYRKYDYWGQGTQVTVSS,low polyreactivity
3,QVQLVESGAGLVQAGGSLRSSCAASGSTFSGNAMGLYRQAPGKERELVAAISGRGGSTYYADSVKGRFTISRDNAKNSVYLQMNSLKPEDTAVYYCAKRRNTRGAYGYWGQGTQVTVSS,high polyreactivity
4,QVQLVESGAGLVQAGGSLRVSCAASGSIFGKNAMGWYRQAPGKERELVAAITSSGGSTYYADSVKGRFTISRDNAKNTVYLQMNSLKPEDTAVYYCAARPWIWARAGYYWGQGTQVTVSS,high polyreactivity
5,QVQLVESGAGLVQAGGSRRLSCAASGSIFYRYTMGWYRQAPGKERELVAGITFGAGTYYADSVKGRFTISRDNAKNTVYLQMNSLKPEDTAVYYCNAIHLPRNRDYWGQGTQVTVSS,low polyreactivity
6,QVQLVESGAGLVQAGVSLRLSCAASGRIFYYYTMGWYRHAPGKERELVASITIGDSTYYADSVKGRFTISRDNAKNTVYLQMNSLKPEDTAVYYCAAVKTVDVGYDYWGQGTQVTVSS,low polyreactivity
7,QVQLVESGAGLVQARGSLRLSCAASGRIFYQYAMGWYRQAPGKERELVAAISWNGGRTYYADSVKGRFTISRDNAKNTVYLQMNSLKPEDTAVYYCAASFTGYSRDRYGYWGQGTQVTVSS,high polyreactivity
8,QVQLVESGAGLVQDGGSLRLICAASGRTFTPYAMGRYRQAPGKEMEFVAAISIVGRTKYADSVKGRFTISRDNAKNTVYLQMNSLKPEDTEVYYCNAQDSRDRKFYWGYTRGHWGQGTQVTVSS,low polyreactivity
9,QVQLVESGAPLVQAGGSLRLSCAASGSTFERYVMGWYRQRLGNKGSWLPVLNHNGGSTYYADSVKGRFTISRDNAKNTVYLQMNSLKPEDTAVYYCAASFRTVLDYGYWGQGTQVTVSS,low polyreactivity
10,QVQLVESGARLVQAGGSLRLSCAASGSILGGNAMGWYRQPPGKERELVAAITFSGGGTYYADSVKGRFTISRDNAKNTVYLQMNSLKPEDTAVYYCAADIAGYTYEFDYWGQGTQLTVSS,low polyreactivity
11,QVQLVESGEGLVQAGGSLRLSCAASGSIFSLNAMGWYRQAPGKERELVAAISGRGGSTYYADSVKGRFTISRDNAKNTVYLQMNSLKPEDTAVYYCAARFSRTFLGYYYWGQGTQVTVSS,high polyreactivity
12,QVQLVESGGAIVQAGRSLRLSCAASGNIFESYGMGWYRQAPGKERELVATINTSSGSTYYADSVKGRFTISRDNAKYTVYLQMNRLKPEDTAVYYCAVRPKTSWYSWYYLGQGTQVTVSS,low polyreactivity
13,QVQLVESGGAKVQAGGSLRLSCAASGRTFDYYVMGWNRQAPVKEREFVAAITWSGDSTYYADSVKGRFTISRENAKNTVYLQMNSLKPEDTAVYYCNADYYPTTFYAFVYMYDYWGQGTQVTVSS,low polyreactivity
14,QVQLVESGGALDQAGGSLRLICAASGRIFWYNAMGWYRQAPGKERELVAGIRSGGSTNYADSVKGRFTISRDNAKNPVYLQMNSLKPEDTAVYYCAARRWRTQDRSHFYYWGQGTQVTVSS,low polyreactivity
15,QVQLVESGGALDQAGGSLRLSCAASGFFRYAMGSYRQAPGKERELVAAITSGGRTNYADSVKGRFTISRDNAKNTVYLQMNSLKPEDTAVYNCAADQGSRSEELDYWGQGTQVTVSS,low polyreactivity
16,QVQLVESGGALDQAGGSLRLSCAASGSTFVVNAMGWYIQAPGKERELVAGITTSGGSTYYADSVKGRFTISRDNAKTTVYLQMNSLKPEDTAVYYCAARRWPYVYRFRAYSGFDYWGQGTHVTVSS,low polyreactivity
17,QVQLVESGGALDQARGSLSLSCAASGFLFGQNAMVWSRQAPGKLREFVATNNRSGGSTYYADSVKGRFTISRDNAKNTVYVQMNSLKPEDTAVYYCAKGPRMSSSLRYSAYWIMNYWGQGTQVTVSS,high polyreactivity
